Experimental data published in patent publication US20260184815A1 (published 2026).

B1: M12-B04 (Fab, V domains shown)
VH: EVQLLESGGGLVQPGGSLRLSCAASGFTFSLYSMYWVRQAPGKGLEWVSRIRPSGGGTVYADSVKGRFTISRDNSKNTLYLQMNSLRAEDTAVYYCARDPLYSSGDVWGQGTTVTVSS
VL: DIQMTQSPSSLSASVGDRVTITCRASQGIRNDLGWYQHKPGKAPKLLIYAASILQSGVPSRFSGTASGTDFTLTISSLQPEDFATYFCLQDYEYPLTFGGGTKLDIK
notes: HC as printed runs into CH1
B2: M12-D10 (Fab, V domains shown)
VH: EVQLLESGGGLVQPGGSLRLSCAASGFTFSNYPMDWVRQAPGKGLEWVSSISSSGGWTNYADSVKGRFTISRDNSKNTLYLQMNSLRAEDTAVYYCATDTSGSYLGFDYWGQGTLVTVSS
VL: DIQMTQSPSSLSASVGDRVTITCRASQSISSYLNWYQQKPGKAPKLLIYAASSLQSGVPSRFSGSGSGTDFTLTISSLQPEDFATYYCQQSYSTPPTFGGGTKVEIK
notes: HC as printed runs into CH1
B3: M12-E06 (Fab, V domains shown)
VH: EVQLLESGGGLVQPGGSLRLSCAASGFTFSQYKMLWVRQAPGKGLEWVSGIGPSGGLTAYADSVKGRFTISRDNSKNTLYLQMNSLRAEDTAVYYCARAPWFGELGMDVWGQGTTVTVSS
VL: DIQMTQSPSSLSASVGDRVSITCRASQSISTYLNWYQHKPGKAPTLLIYGAFSLQSGVPSRFSGSGSGTDFALTISSLQPEDFATYYCQQSHSTPPTFGQGTRVEIK
notes: HC as printed runs into CH1
B4: M12-A08 (Fab, V domains shown)
VH: EVQLLESGGGLVQPGGSLRLSCAASGFTFSWYYMGWVRQAPGKGLEWVSWIVSSGGLTLYADSVKGRFTISRDNSKNTLYLQMNSLRAEDTAMYYCARTTVTTGDAFDIWGQGTMVTVSS
VL: DIQMTQSPSSLSASVGDRVTITCRASQSISRYLNWYQQKPGKAPKLLIYAASTLETGVPSRFSGSGSGTDFTLTITTLQPEDFVIYYCQQSYSTPYTFGQGTKLEIK
notes: HC as printed runs into CH1
B5: M12-C09 (Fab, V domains shown)
VH: EVQLLESGGGLVQPGGSLRLSCAASGFTFSSYAMVWVRQAPGKGLEWVSSIGSSGGFTLYADSVKGRFTISRDNSKNTLYLQMNSLRAEDTAVYYCASMNLGGGDAFDIWGQGTMVTVSS
VL: DIQMTQSPSSLSASVGDRVTITCRASQSIGIYLNWYHQKPGKAPNLLIYGASSLQSGVPSRFSGSGSGTDFTLTISSLQPGDFATYYCQHSYSTPFTFGGGTKVEIK
notes: HC as printed runs into CH1
B6: M11-G12 (Fab, V domains shown)
VH: EVQLLESGGGLVQPGGSLRLSCAASGFTFSQYPMNWVRQAPGKGLEWVSSISSSGGFTTYADSVKGRFTISRDNSKNTLYLQMNSLRAEDTAVYYCAREEQQGGFDYWGQGTLVTVSS
VL: DIQMTQSPSSLSAFVGDRVSITCRASQTISVYVNWYQHKSGQAPKLLIYGASSLQSGVPSRFSGSGSGTDFTLTISSLQPEDFATYFCQQSYSIPFTFGGGTDVQIR
notes: HC as printed runs into CH1
B7: M11-G09 (Fab, V domains shown)
VH: EVQLLESGGGLVQPGGSLRLSCAASGFTFSLYNMTWVRQAPGKGLEWVSYIYPSGGGTHYADSVKGRFTISRDNSKNTLYLQMNSLRAEDTAVYYCARDTGFWSADAFDIWGQGTMVTVSS
VL: DIQMTQSPSSLSASVGDRVTITCRTSQGINHYLNWYQQKPGKAPKILVFAASELQTGVPSRFSGTGSGTSYTLTITSLQPEDVATYYCQQTYTSPYTFGQGTKLEVK
notes: HC as printed runs into CH1
B8: M12-C10 (Fab, V domains shown)
VH: EVQLLESGGGLVQPGGSLRLSCAASGFTFSDYEMHWVRQAPGKGLEWVSGISPSGGKTQYADSVKGRFTISRDNSKNTLYLQMNSLRAEDTAVYYCARDLKWGGRGSPDWYFDLWGRGTLVTVSS
VL: QSALTQPPSVSVSPGQTASITCSGDKLGEKYVSWYQQKPGQSPVVVIYQDNKRPSGIPERFSGSNSGNTATLTISGTQAVDEADYYCQAWDSYTVVFGGGSKLTVLG
notes: HC as printed runs into CH1
B9: M27-A10 (Fab, V domains shown)
VH: EVQLLESGGGLVQPGGSLRLSCAASGFTFSWYRMDWVRQAPGKGLEWVSSIWPSGGLTSYADSVKGRFTISRDNSKNTLYLQMNSLRAEDTAVYYCARGWAPGGDAFDIWGQGTMVTVSS
VL: DIQMTQSPSSLSASVGDRVTITCRASQSISAYLNWYQQKPGKAPQLLMYGVGSLQSGVPSRFSGSGSGTDFTLTISSLQPEDFATYFCQQGYTTPVTFGGGTKVEIK
notes: HC as printed runs into CH1

What follows are binders tested against T1, human plasma kallikrein (human, UniProt P03952 20-390; P03952 391-638) (assay: ELISA, biotinylated pKal signal over streptavidin background).
T1 construct: also called pKal; Human pKal
T1 sequence (P03952 20-390, chain 1 of 2): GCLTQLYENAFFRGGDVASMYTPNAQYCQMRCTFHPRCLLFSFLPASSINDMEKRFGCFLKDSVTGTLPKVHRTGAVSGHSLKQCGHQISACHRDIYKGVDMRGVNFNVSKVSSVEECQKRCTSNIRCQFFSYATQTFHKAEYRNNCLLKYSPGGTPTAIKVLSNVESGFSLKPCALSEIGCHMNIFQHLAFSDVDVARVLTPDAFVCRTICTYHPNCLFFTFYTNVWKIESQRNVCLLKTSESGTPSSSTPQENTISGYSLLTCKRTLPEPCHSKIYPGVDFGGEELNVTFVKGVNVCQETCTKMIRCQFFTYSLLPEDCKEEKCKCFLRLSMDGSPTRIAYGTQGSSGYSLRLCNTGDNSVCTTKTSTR
T1 sequence (P03952 391-638, chain 2 of 2): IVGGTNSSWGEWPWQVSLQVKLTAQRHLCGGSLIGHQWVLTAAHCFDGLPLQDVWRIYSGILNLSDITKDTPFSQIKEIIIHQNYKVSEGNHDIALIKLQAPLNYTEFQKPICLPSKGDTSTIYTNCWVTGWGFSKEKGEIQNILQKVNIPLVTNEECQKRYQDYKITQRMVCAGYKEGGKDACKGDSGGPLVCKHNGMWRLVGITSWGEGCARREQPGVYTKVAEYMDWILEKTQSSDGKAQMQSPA
Excerpt: Abbreviations used: “T/B” is the ELISA signal obtained using of the “target” (biotinylated plasma kallikrein) divided by the ELISA signal of the “background” (streptavidin); both of which were coated on microtiter plates, “nd” is not determined. The symbol “q” refers to the amber suppressible stop codon (TAG), which is translated as glutamine (Q) in strains of E. coli such as the TG1 cells that were used to express the Fab fragments.

ELISA (T/B)	Binder
18	B1
9.9	B2
48	B3
40.4	B4
7	B5
4.9	B6
23.6	B7
8.3	B8
3.2	B9
